Results as given in a protein production outcome set (Wang et al. 2014).

Test: label from the status in PepcDB records

Sequence | protein production
MKSILDGLADTTFRTITTDLLYVGSNDIQYEDIKGDMASKLGYFPQKFPLTSFRGSPFQEKMTAGDNPQLVPADQVNITEFYNKSLSSFKENEENIQCGENFMDIECFMVLNPSQQLAIAVLSLTLGTFTVLENLLVLCVILHSRSLRCRPSYHFIGSLAVADLLGSVIFVYSFIDFHVFHRKDSRNVFLFKLGGVTASFTASVGSLFLTAIDRYISIHRPLAYKRIVTRPKAVVAFCLMWTIAIVIAVLPLLGWNCEKLQSVCSDIFPHIDETYLMFWIGVTSVLLLFIVYAYMYILWKAHSHAVRMIQRGTQKSIIIHTSEDGKVQVTRPDQARMDIRLAKTLVLILVVLIICWGPLLAIMVYDVFGKMNKLIKTVFAFCSMLCLLNSTVNPIIYALRSKDLRHAFRSMFPSCEGTAQPLDNSMGDSDCLHKHANNAASVHRAAESCIKSTVKIAKVTMSVSTDTSAEAL | not failed
MLQLDHRHSIELHFAIPVSLPGCLSGAEVVADWPLDARSSGRQTSVSEAAGAGPVDRMNKEHYPFRMFLLGPFALVDAGGRSVAPKSKKAQALLAMLALSTRGSRSRIWLRDKLWSDRSDDQAAASLRQALLDIHKSLGPARDLLIADKNTVWLDTDRLLLDTDLMIRTERSPDQVTDELLEGIDIRDPEFEDWLALERQNWYRRLDEGQVHDVFEPRQQPSRDIAKHSALLPLTGAPDTSRTGKPVDIASSGPYGRRVGGDWQWMMALQSPIVVGAGEGGQIAATRFQNLIAKAIIDGLGFGVTDLSFTLPHIEENEQQISLPICLQLRLTFDGDMVLIELVMKHLINNRIHWLGSQAINRTQFERGEFGIAAALISQAVDQLAYFQEIQATDSRLSQDGLLIDAVNAIFRLSRDDLDNAERRLEEQIQYQPRSSTFAWLSFIRTFQVGQRFNALDAHLIEEAQAYARKALELDPQNSVSLALVGHVHSFLFGEYDYAANLFEKSIRLNPALPLGWDLYAMLHCYAGQPDKAVAMARWVQELGVYSPHKYYFDTTKCIAAALAGDHAAAITAGEEALRARPNFNSLLRYLASSHAHSNDLGSARHYLQRLEAVEGGFSINDFRGSGYPLLDTGGGQILIDGLLKAGAKLR | failed
MYHVTVGISEKEYDAFAIASSQTNLLHSSKWAQVKSNWQNERLGFYKDDQLVAVASILIKSLPLGFTMLYIPRGPIMDYSNKELVNFVLKTLKNFGRKKRAVFAKFDPALLLRQYHLKEENVAEEIDESRQAIDNLKSAGAQWIGPTKAISETIQPRFQANIYTKANIEENFPKHTKRLIKDAKHRGVQIYRANIDDLPKFATVVALTENRKGVALRNENYFHQLMTIYGEDAYLYLAKVNLPKRLAQFKEQLLQIQKDLSETPSHQKSRLTRLNQQEASVKQYILEFQEFSKKYPDEPVIAGILSIRFGNVLEMLYAGMDDSFRKFYPQYLLNARVFEDAFKNDIVSANLGGVEGSLNDGLTKFKSNFNPMFEEYIGEFNLAINPLLYKLANLAYTIRKKQRHSH | failed
MGHHHHHHENLYFQSHLKIMDVEGGALVDPDHIEEVETSMVIVVDDDDGDVAMVVEEDKHPMRDDPCIEDIMDDEHAPLVAELQSALNNPDDKQASEDPLLED | failed
MSLTGNAQAATIADPSTLVVDTVGPVLTIGLNRPKKRNALNDGLMAALKDCLTDIPDQIRAVVIHGIGDHFSAGLDLSELRERDATEGLVHSQTWHRVFDKIQYCRVPVIAALKGAVIGGGLELACAAHIRVAEASAYYALPEGSRGIFVGGGGSVRLPRLIGVARMADMMLTGRVYSAAEGVVHGFSQYLIENGSAYDKALELGNRVAQNAPLTNFAVLQALPMIAEANPQTGLLMESLMATVAQSDQEAKTRIRAFLDHKTAKVREGHHHHHH | not failed
MINEHYIPQAVILANGEYPAHELPLRLLAEAQFVVCCDGAANEYISRGHTPDVIIGDGDSLLPEYKKRFSSIILQISDQETNDQTKAVHYLQSKGIRKIAIVGATGKREDHTLGNISLLVEYMRSGMEVRTVTDYGTFIPVSDTQSFASYPGQQVSIINFGAKGLKAEGLFYPLSDFTNWWQGTLNEAIADEFTIHCTGEYLVFLAY | not failed
MPPQPDAAPPPLPPELAPLLPTDPVTIGPFRVIGRLGSGGMGAVYGALDAEHRCVAVKVIHAEHVRRPEYRELFAREAELVSRIDAECTPRFLGADPNAPEPWLATEFVPGRTLQQHVREFGPLDEAALRAFAAGTAEALAAIHAAGVVHLDVKPGNIMLAPDGPKVLDFGIARAIGDTTDKNVYGTPGWAAPERLDRQPGTPAADMFAWGGLIVFAATGRSPFGTGTSAELLERVRAGDCDLTGVPEELMELVARALSTDPEARPTAVEAFHTVLALDTVAADAIEEPGEDAAAIHRKRLRALLHRVWTGFDAAGHRPELWMALGTAAGGVGVAAGGAAALATQGTAGGGAAAGSGKLVGTASAAGGGASWGAGAGTLTKSATVTAAGTGLSGKAMLTVAAGATAAAVAGGWLVGRAVTDQPLLPFTDPEPSATAALAPSPEEDEKEGQEVRFRNLTLWFPEDWTVHVIEDIEFVGFGPDHEGREIVDDWIAAHPPGNPGCAEVDWNHWEWPAALVECPHIRILGPGGITYGGAVYEPITEEPDAGLFAPSQNPLPCIPGIDAYEADPASFPGQSPLVEELAPVGDRSALYREYLTPCGNPDGRDPELLYYTQRSWFLPESQILIVDEYGIEDIDAILADGEFASRSEED | failed
MNNRVEILYCTQCRWLLRATWMTQELLTTFDQEIGELTLKPGTGGLFEVWVNGKRIWSRKEQGGFPEISELKRLVRDEVAPGRDLGHADQKGKTGASPAPAEP | failed
MPGAEQRWPARAALLLVLIAAAGLARGQETPSGPPPRVAMVVGNSAYQNVPALPNPAGDAELVAEKLWESGFEVIETVDADRETMLADLATFRSRLREGSEALFFYAGHGVQIGGRNYLLPVSVAPSSVEDLKAQAIDAQLFLDVMAQSGARLTLVLLDACRNNPFLDIPSDGAEAIATRALSIGASRAAVERGLRDLAAASRGGLAEMSAGRGEALISFATAPGQVAFDGRGRHSPYTSALAGSIDEPGLELVDLFRRVRGAVREATGGQQIAWTASTLESRFYFKPPADDLRSATTGMSTGSDTLGALPPRRVVDRTFWRAIRDTDRLDAFTAYVRTMPDGAFVAEAKEKIRSLGGDPEAIPVSDLSLPERPRGFVLADPAAQADLAATLDRAPASVPIGTGAARIGAAAGRAGWVHVAAAPRLGAVSAGGTRLEAGSVRWMEADQPLDYLPGIGSNGGLDSLRAEALREGGTTEPLEAAVETYVDACDMLAGNPYDSQRVTAGTRQFILDRNHDAAIAVCEIAVARHPEVVRFWAELARSYRAAGRYEEALHWQQKAVDAGYASAMVYLGQMFLDGQAVPQDFDRARELFEAADARGETAALTALAWIHRAGVGVPEDPARALDFYRQGAARGNDWAMTNIGEFYQKGLSVARDPAEAVRWYTAAAKSGELTAQTRLARMYQTGDGIAVDEAQARFWFETAAGRGVPNALTRLGLMYEQGQGVDRDLEAAARLYGRAAAEGDAEAWLRLGRLEASDAPLFDRPERALPLLEKALAAQVPGAARELGRLYETGRGVTKDLARARALYVQEAGANPWAARDAGRAFASDEGAPADPAQAARWYRAAAEGGVPWAALDLGRLYETGRGVPQDRTEALVLYAAAARPGGDARAADAARRAAAGYSAEETIRAAQLLLGRLGAEVGAPDGRIGPATRDALARVFAAQGRAAPGTRIDFDLLAELSAMDEERLP | failed
MFENESLSFEEQTIIQAAERYVQQELANEASGHDWWHIYRVTQLAKTIAEKEQANLFLCILTALLHDIGDEKFNESEEAGLLKVQQWLEANNVSTEQTNHILSIIANMSFKGGNTGKTVTTLEGKVVQDADRLDAIGAIGIARVMAYSGNKGRLIHDPHKQPREQLTQEEYRNGEDTAIMHFYEKLLKLKEQMNTNYGRLLAEKRHQFMELYLEEFYQEWDGHRLEHHHHHH | not failed
MEKSLLVIVRHKPGRTRLLIRALQSINDQTFKKINIIIFCMEEELKCHNVDDFYLKELSNIYSVIYDENCIFNAIKMSESNYLCFMDDDDSWAPEYVSRLLSVLANIQSTYSSVNAIACHTNKVAEIAENNRIIINSTQPWNHYLNAGPVSFDVIYYRNSIPLSSCLFDRNSVIDVIESHKLSSPAFFWPFFIHYLAENDVWILPEALAFYHFRENDDFEFGNYTVINNELFDIECKIAENKMMRSIDDSSLLNVLLSNIANNSLFHKISYIENKIK | failed
MHDGSVFYTIFLIFAGAAFFSTLVLYTKQSLLVAYITLGAILGPWGFKLVSDVTVVKQIGDIGIVFLLFLLGLHLQPQNLIHMLRKVTWIAIVSSILFAALAYGIGRWFGLTVTESLILGGAMMFSSTIIGLKLLPTTILHHQHTGEVMISVLLMQDVIAIVLLILLNSAHQDGNLSISDFILVIIALPALCLFSFLFERYILIKLLARFDRTQEYVFLLSIGWCLGISVLAQTIGLSEDIGAFIAGVALASSPISLFIAESLKPLRDFFLVMFFFSIGATFNFGFGAQVVIPAVILATLILIIKPLLFYILLARSGEKKQVAKEVGIRLGQGSEFSLLVASIALSTNLISEVASNLIQATTILTFIVSSYLVVLKYPTPIALSEKMRKD | failed
MQDIVRKTIDNLNRNHMAGYYTQSIQQLHELLYRLMPEGQTVGCGDSVTLEQSGVYEYVRNHSYNFLDKYRTGLNREEKREIYLQNFRADTFLTGINAVTIDGKLFNIDGNGSRVAPIIYGPKQVIAVVGTNKIVKSVDDAIWRTRQIAAPLDARRLAKETPCVKLAKCIDCHHSQRICNDFVLITGQFEKGRIKVIFIEGDYGY | failed
MTNNQKLVGRHKRLAFMKVGTEGTYDRITGFTSLIEGKEAKEYARQYIDEATERTDVVGYATGIEYAFDRYTNNAVHEKIANITDDELLGVDAQVEIVSVDVFEEKAGGKYPARKRTYSVVPDTTGDGTDALIYSGNFKAVSEIVKGYCTTTDKWQTCTFVEGEIPAEALEHHHHHH | not failed
MNDLTKGKPLKLIFWFTIPLLIGNIFQQFYSLSDTLIVGQTLGVKALAAVGSTGSVQFLIIGFAQGLTAGLSILTAQHFGARDFKAVRRSFAISIVVSLIVGIILTILSLIFVDHILLLMQTPTDIIADARTFLQIMLGGMLAPIAFNLLSNIIRALGDSRTPLWFLIISALINIGLELLFILVFKWGIAGASWATILAQTIATLMCVVYIIVKVPILHIGRRHFKLVWSEVKAHLNVGLPMAFQMSIIAIGTIVLQAALNSLGTNSVAATTAAQKIDQVATQPLMSFGVTMATFAAQNYGAHQYERIITGVKQTMWLSGSFSVAAGLIEIIWGKQLVGFFVGHQDMAVLNLSQTYFNVIGSTYILLSMLFIMRNTLQGLGRSAIPTLAGAAELFMRVFAALILVRIFDYAGACSSEPLAWLGSCAVLLPAYIKSVHDLRQQARMTNTVAEGAEPILNDSEKL | failed
MIDGQIRLGHSMPWGMVGGGQGSQIGYIHRSAALRDGSFQLVAGAFDLDPERGRQFGQRLGVSAQRCYPDYRAMFEAEARRPDGIRAVSIATPNNTHFDICRAALHAGLHVVCEKPLCFTTAEAEALQRLAGEQRKIVGVTYGYAGHQLIEHAREMIVRGDLGEIRIVQMQFSHGFHSEGVEAANPAARWRMDPTFAGPSYVLGDIGTHPLYLSEVMLPGLKIARLLCSRQSFVKTRAPLEDNAFTIMEYQGGAIGYAWSCAVNAGSMHGQKIRVIGSKASLEWWDEHPNQLRYEVQGQPAQVLDRGMGYLHPAALHDDRIGAGHPEGLFEAWSNLYYRFALAMDATDRDDAAALRGIRYPDIHAGVEGVRWVENCVRSADAGGVWVDYR | failed
METLELFKVISRWLFLLSIGYYLLTNLQWYSYKIERVFFKHHKWRWHILYFFMPILFFFLLGDYFYIYLYVAQLPGVMLWAKKLDKPLIFTGRVKRFFAIYAGFMLFSELLCTTTGGECDKVLYLFPLFFTILITYVLERVLLNRYATAAKDKLASMPNLTIIAITGSYGKTSLKNFLAQILNDNFKVHASPRSVNTFAGIVADINENLSPLSDIYIAEAGARTRGDIKEIGVLLEHHYGIVGKVGEQHMEYFRTLENVRETKFELAQSPRLKELFSYEGNTPPSGIKATSFPTETRNIKATLKGTSFEMLIEGQFYPFETEVLGEFNVTNISAAILVALRLGIPIEKIQRQVARLKPIPHRLQKMEVNLKLILDDSFNGNLEGMLEAIRLSSLYYGRKVIVTPGLVESTEEANTTLAQAINETFDIAILTGELNLKTLSAHIQKPQKVVVKEKEALEEVLKATTREGDLILFANDAPSYI | failed
